The source of these data is patent US20230213527A1, “COMPOSITIONS AND METHODS FOR POLYPEPTIDE ANALYSIS” (Quantum-Si Incorporated, priority 2021, published 2023).

Assay [1] deals with RLp… (SEQ ID NO: 824), state with N-terminal leucine (Lp…). The assay can be described thus: single-molecule on-chip sequencing with PS691, PS610 and PS961.
Assay [2] concerns the target … (SEQ ID NO: 823), state with N-terminal leucine (…). The description is as above.

B1: PS961 (designed binder)
chain: MPTAASATESAIEDTPAPARPEVDGRTKPKRQPRYHVVLWDDDDHTYQYVVVMLRSLFGHPPSRGYRMAKEMDTQGRVIVLTTTREHAELKRDQIHAFGRDRLLARSKGSMKASIEAEE
Regarding B1, the RS mean PD is 3.4 s in assay [1] and 2.45 s in assay [2].
